Results reported in publication PMC8713425 (Journal of medicinal chemistry, 2021).

Target: LGR4 (leucine-rich repeat containing, G protein-coupled receptor 4) (UniProt Q9BXB1 25-951)
Experiment: whole-cell binding assay

B1: R4Fu-WT (wild-type RSPO4 furin domain fused to human IgG1 Fc) (Fc fusion)
chain: VGTGLGGNCTGCIICSEENGCSTCQQRLFLFIRREGIRQYGKCLHDCPPGYFGIRGQEVNRCKKCGATCESCFSQDFCIRCKRQFYLYKGKCLPTCPPSGGGGSGGGGSGGGGS
Question: For B1, which Kd is on record?
Answer: 3.2 nM

B2: R4Fu-Q65R (RSPO4 furin domain Q65R fused to human IgG1 Fc) (Fc fusion)
chain: VGTGLGGNCTGCIICSEENGCSTCQQRLFLFIRREGIRRYGKCLHDCPPGYFGIRGQEVNRCKKCGATCESCFSQDFCIRCKRQFYLYKGKCLPTCPPSGGGGSGGGGSGGGGS
Question: How did the Kd turn out when B2 was run?
Answer: 6.2 nM
